This series deals with Escherichia coli TOP10. Description: shrunken log2 fold change of peptide-encoding DNA abundance (4.5 h post-induction vs induction); higher = less antimicrobial activity (less host growth inhibition). The note with it: time post-induction: 4.5 h; library: site-saturation at positions 5, 18, 19, 20.

This note sets out measurements from the supplement of paper PMC9112550, “Optimization of the antimicrobial peptide Bac7 by deep mutational scanning” (BMC Biology, 2022).
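Further: peptides expressed intracellularly from a pBAD plasmid library in pooled LB shake-flask culture, induced with 0.3% L-arabinose, DNA abundance read by NGS, three biological replicates, DESeq2 with apeglm shrinkage.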

Turning to RRIRLRPPRLPRPRPRPPMPPRP, the “shrunken log2 fold change” value is 0.0906.

Consider RRIRWRPPRLPRPRPRPNIEPRP, for which the “shrunken log2 fold change” value was -0.0429.

With RRIRKRPPRLPRPRPRPIIRPRP, the “shrunken log2 fold change” value is -0.59.

On to RRIRMRPPRLPRPRPRPNNIPRP, for which the “shrunken log2 fold change” value is -0.564.

RRIRMRPPRLPRPRPRPWFMPRP: the “shrunken log2 fold change” value was found to be 0.363.

Consider RRIRFRPPRLPRPRPRPCMKPRP, for which the “shrunken log2 fold change” value stood at 0.068.

In the case of RRIRYRPPRLPRPRPRPCMEPRP, the “shrunken log2 fold change” value is -0.0771.

For RRIRCRPPRLPRPRPRPWERPRP, the “shrunken log2 fold change” value is -0.118.

As to RRIRIRPPRLPRPRPRPWGEPRP, the “shrunken log2 fold change” value was -0.0259.

Take RRIRNRPPRLPRPRPRPFDTPRP: the “shrunken log2 fold change” value was determined as 0.0291.

As for RRIRTRPPRLPRPRPRPTHLPRP, the “shrunken log2 fold change” value was -0.0332.

For the sequence RRIRNRPPRLPRPRPRPEIWPRP, the “shrunken log2 fold change” value turned out to be 0.0992.

With RRIRYRPPRLPRPRPRPIRIPRP, the “shrunken log2 fold change” value was -0.144.

As to RRIRDRPPRLPRPRPRPEYGPRP, the “shrunken log2 fold change” value worked out at 0.305.

On to RRIRIRPPRLPRPRPRPFKRPRP, for which the “shrunken log2 fold change” value is -0.446.

With RRIRERPPRLPRPRPRPETAPRP, the “shrunken log2 fold change” value worked out at 0.0892.

In the case of RRIRYRPPRLPRPRPRPGPGPRP, the “shrunken log2 fold change” value was 0.304.

Take RRIRMRPPRLPRPRPRPEWCPRP: the “shrunken log2 fold change” value stood at 0.234.

Consider RRIRERPPRLPRPRPRPMKLPRP, for which the “shrunken log2 fold change” value was -0.0902.

For the sequence RRIRRRPPRLPRPRPRPNIRPRP, the “shrunken log2 fold change” value was -0.144.

As for RRIRVRPPRLPRPRPRPGMLPRP, the “shrunken log2 fold change” value is -0.333.

In the case of RRIRRRPPRLPRPRPRPKTAPRP, the “shrunken log2 fold change” value is 0.707.

Regarding RRIRWRPPRLPRPRPRPFMKPRP, the “shrunken log2 fold change” value was -0.128.

Turning to RRIRARPPRLPRPRPRPEPPPRP, the “shrunken log2 fold change” value was 1.27.

For RRIRIRPPRLPRPRPRPCWFPRP, the “shrunken log2 fold change” value is -0.165.

On to RRIRFRPPRLPRPRPRPKHVPRP, for which the “shrunken log2 fold change” value is -0.0891.

Regarding RRIRYRPPRLPRPRPRPTSQPRP, the “shrunken log2 fold change” value was 0.054.

Take RRIRPRPPRLPRPRPRPCFQPRP: the “shrunken log2 fold change” value was -0.0314.

As to RRIRGRPPRLPRPRPRPERSPRP, the “shrunken log2 fold change” value was 1.36.

As to RRIRFRPPRLPRPRPRPMSMPRP, the “shrunken log2 fold change” value was 0.00945.

For the sequence RRIRNRPPRLPRPRPRPIDPPRP, the “shrunken log2 fold change” value is -0.127.

Consider RRIRHRPPRLPRPRPRPHCIPRP, for which the “shrunken log2 fold change” value is -0.199.

In the case of RRIRTRPPRLPRPRPRPYAIPRP, the “shrunken log2 fold change” value is -0.000694.

Regarding RRIRSRPPRLPRPRPRPDMWPRP, the “shrunken log2 fold change” value was -0.409.

Regarding RRIRRRPPRLPRPRPRPMWCPRP, the “shrunken log2 fold change” value came out at 0.135.

RRIRIRPPRLPRPRPRPSNWPRP: the “shrunken log2 fold change” value was -0.257.

Take RRIRMRPPRLPRPRPRPRFGPRP: the “shrunken log2 fold change” value turned out to be 0.853.

Regarding RRIRWRPPRLPRPRPRPLPIPRP, the “shrunken log2 fold change” value was -0.0952.

Consider RRIRMRPPRLPRPRPRPARCPRP, for which the “shrunken log2 fold change” value was 1.16.

With RRIRWRPPRLPRPRPRPGKCPRP, the “shrunken log2 fold change” value was 0.0425.

As to RRIRPRPPRLPRPRPRPNFAPRP, the “shrunken log2 fold change” value is 0.445.

Consider RRIRDRPPRLPRPRPRPENSPRP, for which the “shrunken log2 fold change” value worked out at 0.0647.

Regarding RRIRQRPPRLPRPRPRPPWWPRP, the “shrunken log2 fold change” value turned out to be 0.498.

RRIRGRPPRLPRPRPRPNKPPRP: the “shrunken log2 fold change” value is -0.035.

RRIRYRPPRLPRPRPRPFKAPRP: the “shrunken log2 fold change” value was -0.55.

Turning to RRIRWRPPRLPRPRPRPQIWPRP, the “shrunken log2 fold change” value was 0.0603.

Regarding RRIRDRPPRLPRPRPRPPHNPRP, the “shrunken log2 fold change” value was -0.103.

In the case of RRIRPRPPRLPRPRPRPICLPRP, the “shrunken log2 fold change” value is 2.37.

As for RRIRPRPPRLPRPRPRPWGQPRP, the “shrunken log2 fold change” value was determined as 0.0568.

As for RRIRLRPPRLPRPRPRPECYPRP, the “shrunken log2 fold change” value is -0.235.
